{"source": "patent US6342220", "about": "(Genentech, dated 2002)", "binders": {"B1": {"name": "12E10 Fab′2 (other)", "VH": "QVQLQQSGPGLVKPSETLSLTCTVSGDSISSYYWSWIRQPPGKGLEWIGYIYYSGSTNYNPSLKSRVTISVDTSKSQFSLKLSSVTAADTAVYYCARGRYFDVWGRGTMVTVSS", "VL": "SYVLTQPPSVSGSPGQSITISCTGTSSDVGGYNYVSWYQQHPGKAPKLMIYEGSKRPSGVSNRFSGSKSGNTASLTISGLQAEDEADYYCSSYTTRSTRVFGGGTKLTVL", "notes": "F(ab′)2 with leucine zipper; A lambda version of the Fab′2 vector is not described; copies: 2 + 2"}}, "biological_target": "T1, mpl-Ig (human, UniProt P40238 26-491, limits assumed)", "T1 construct": "From conditioned media of mpl-Ig-transfected 293 cells; also called mpl-IgG; not shown: human IgG Fc (the fusion is captured with rabbit anti-human IgG Fc)", "T1 sequence (looked up)": "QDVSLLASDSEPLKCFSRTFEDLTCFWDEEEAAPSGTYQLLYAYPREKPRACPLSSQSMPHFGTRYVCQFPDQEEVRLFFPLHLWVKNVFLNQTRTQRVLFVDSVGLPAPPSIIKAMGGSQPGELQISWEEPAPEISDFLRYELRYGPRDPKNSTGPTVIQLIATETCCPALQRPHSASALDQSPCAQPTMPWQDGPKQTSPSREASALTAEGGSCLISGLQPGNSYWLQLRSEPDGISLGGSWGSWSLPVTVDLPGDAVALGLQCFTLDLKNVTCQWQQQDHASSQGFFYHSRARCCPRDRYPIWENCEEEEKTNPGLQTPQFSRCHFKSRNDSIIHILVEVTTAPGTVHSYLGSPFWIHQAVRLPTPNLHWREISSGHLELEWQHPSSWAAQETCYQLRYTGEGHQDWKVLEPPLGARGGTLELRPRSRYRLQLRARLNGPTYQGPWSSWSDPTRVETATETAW", "assay": "competition ELISA, biotinylated TPO on captured mpl-Ig"}
{"binder": "B1", "values": [{"measurement": "IC50", "value": 640, "unit": "pM"}]}
